Test [1] addresses atypical protein kinase C ι (aPKCι) (Homo sapiens, UniProt P41743).
In the next test the target is T1, GST-PAR6 (Par6a, cds) (human, UniProt Q9NPB6 1-346).
T1 sequence (looked up): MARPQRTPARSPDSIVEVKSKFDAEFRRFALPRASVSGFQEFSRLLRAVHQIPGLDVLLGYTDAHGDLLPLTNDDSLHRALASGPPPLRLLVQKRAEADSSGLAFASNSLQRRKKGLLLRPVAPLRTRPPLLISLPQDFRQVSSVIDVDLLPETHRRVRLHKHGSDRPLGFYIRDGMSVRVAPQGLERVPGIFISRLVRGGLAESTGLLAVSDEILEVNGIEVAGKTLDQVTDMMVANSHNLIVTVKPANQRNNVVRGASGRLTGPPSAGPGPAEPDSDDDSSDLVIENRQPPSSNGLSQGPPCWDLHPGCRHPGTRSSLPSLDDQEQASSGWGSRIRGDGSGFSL
As to the kind of experiment: pull-down.

Broadly, the IC50 is the concentration that inhibits the measured activity by half. High values mean weaker potency, low ones greater potency. As for `O=C(O)CC([S][Au])C(=O)O` (stereo not drawn) [ATM, aurothiomalate], it took 20.4 µM to reach half-maximal inhibition in test [1] (IC50).

B1: HIS-aPKCι, PB1 domain of human atypical protein kinase C ι (amino acids 1–113) (domain or fragment, UniProt P41743 1-113, looked up)
chain: MPTQRDSSTMSHTVAGGGSGDHSHQVRVKAYYRGDIMITHFEPSISFEGLCNEVRDMCSFDNEQLFTMKWIDEEGDPCTVSSQLELEEAFRLYELNKDSELLIHVFPCVPERP
B1: in the test with GST-PAR6 (Par6a, cds), the “mean binding ratio at 10 μM ATM (0 μM ATM = 100%)” value amounted to 63.8% and the “mean binding ratio at 50 μM ATM (0 μM ATM = 100%)” value is 32.7%.

Source of the values: PMC3973203 (Cell Death & Disease, 2014).
